The nature of the series: yeast display, Sf9 membrane polyspecificity reagent, FACS + sequencing; frameworks hold sequencing errors. Put shortly:
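Synthetic nanobody libraries on Saccharomyces cerevisiae BJ5465 were galactose-induced for 36–48 hours, stained 1 hour at 4 °C with 10% biotinylated, detergent-solubilized Sf9 membrane reagent and enriched on streptavidin microbeads. FACS then separated cells into low and high (top ~1%) gates by anti-HA (expression) and streptavidin (reagent binding) fluorescence. Genes were colony-PCR amplified, MiSeq 2 × 250 sequenced and CDR-length filtered. A clone's polyreactivity label is that of its gate of origin.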
On to “QVQLVESGGGLVQAGGSLRLSCAASGFIFIYDMGWYRQAPGKERELVAAITSSDGSTYYADSVKGRFTISRDNAKNTVYLQMNSLKPEDTAVYYCNAKYPWGNYNSVSYDYWGQGTQVTVSS”, for which the “polyreactivity (PSR sort gate)” value is reported as “high polyreactivity”.
The entry for “QVQLVESGGGLVQAGGSLRLSCAASGFIFKGYAMGWYRQAPGKERELVATINWSGGRTYYADSVKGRFTISRDNAKNTVYLQMNSLKPEDTAVYYCNVQVGTYAWWYRVGSWYDYWGQGTQVTVSS” is “high polyreactivity”; for “QVQLVESGGGLVQAGGSLRLSCAASGFIFKHYAMGWYRQAPGKERELVAAITSSGGNTYYADSVKGRFTISRDNAKNTVYLQMNSLKPEDTAVYYCNARFRTLYWGQGTQVTVSS” it is “high polyreactivity”; for “QVQLVESGGGLVQAGGSLRLSCAASGFIFKLNAMGWYRQAPGKERELVATITRGGDTKYADSVKGRFTISRDNAKNTVYLQMNSLKPEDTAVYYCAAGYPYSYRDYYYWGQGTQVTVSS” it is “high polyreactivity”.
Then “QVQLVESGGGLVQAGGSLRLSCAASGFIFKQYAMGWYRQAPGKERELVAAISWTGGSTYYADSVKGRFTISRDNAKNTVYLQMNSLKPEDTAVYYCAAKRRTRQSYYTEYYWGQGTQVTVSS”, with “high polyreactivity”.
Then “QVQLVESGGGLVQAGGSLRLSCAASGFIFKRYAMGWYRQAPGKERELVAPITSNGGRTYYADSVKGRFTISRDNAKNTVYLQMNSLKPEHTAVYYCARDSQYYEQDDYWGQGTQVTVSS”, with “high polyreactivity”.
For “QVQLVESGGGLVQAGGSLRLSCAASGFIFKRYAMGWYRQAPGKVRELGAAITGSGGSTYYADSVKGRFTISRDNAKNTVYLQMNSLKPEDTAVYYCARGNGGSLDYWGQGTQVTVSS”, the “polyreactivity (PSR sort gate)” value was “high polyreactivity”.
In the case of “QVQLVESGGGLVQAGGSLRLSCAASGFIFKSNGMGRYRPEPGKERELVSAIRRSGGSTYYADSVKGRFSISRDYAKNTFYLQMNSLKPEVTAVYYCGIRRGVYTHWYDYWGQGTQVTVSS”, the “polyreactivity (PSR sort gate)” value was “high polyreactivity”.
The entry for “QVQLVESGGGLVQAGGSLRLSCAASGFIFKWYAMGWYRQAPGKERELVAAISTSGGSTYYADSVKGRFTISRDNAKNTVYLQMNSLKPEDTAVYYCAVLVGRLVWSYNHWGQGTQVTVSS” is “high polyreactivity”.
Consider “QVQLVESGGGLVQAGGSLRLSCAASGFIFKYYAMGWYRQAPGKERELVASISSYGSSTYYADSVKGRFTSSRDSAKNTVYLQLNSVKPEDTAVYYCAAPYNFWNFFDLIYVWDGYDYWGQGTQVTVSS”, for which the “polyreactivity (PSR sort gate)” value was “low polyreactivity”.
Then “QVQLVESGGGLVQAGGSLRLSCAASGFIFLFNAMGWYRQAPGNESELVAAIYDDGSTYYADSVKGRFTLSLDNAKNTVYLHMNSVKPEDTAVYYCAAPRRGRWIRGYLGQGTQVTVSS”, with “high polyreactivity”.
As to “QVQLVESGGGLVQAGGSLRLSCAASGFIFLGNVMGWYRQAPGKERELVAAINWSDGSTYYADSVKGRFTISRDNAKNTVYLQMNSLKPEDTAVYYCNVDAGVEGGTVDYWGQGTQVTVSS”, the “polyreactivity (PSR sort gate)” value is “low polyreactivity”.
Then “QVQLVESGGGLVQAGGSLRLSCAASGFIFLGYAMGWYRQAPGKERELVAAISSDSDTNYADSVKGRFTISRDNAKNTVFLQMNSLKPEDTAVYYCNADIDSYREMDYWGQGTLVTVSS”, with “low polyreactivity”; and “QVQLVESGGGLVQAGGSLRLSCAASGFIFLKYAMGWYRQAPGKERELVASITSTGGSTYYADSVKGRFTISRDNAKNTVYLQMNSQKPEDTAVYYCARDTVPSSDPWYYAWGGFEFDYWGQGTQVTVSS”, with “low polyreactivity”.
Then “QVQLVESGGGLVQAGGSLRLSCAASGFIFLNYAMGWYRQAPGKERELVAAITSGGNTTYADSVKGRFTISRDNAKNTVYLQMNSLKPEDTAVYYCAADGWRAGPGDYWGQGTQVIVSS”, with “low polyreactivity”; and “QVQLVESGGGLVQAGGSLRLSCAASGFIFLPYAMGWYRQAPGKERELVAAITRGGRTYYADSVKGRFTISRDNAKNTVYLQMNSLKPEDTAVYYCAATTYLVWGYNYWGQGTQVTVSS”, with “low polyreactivity”.
“QVQLVESGGGLVQAGGSLRLSCAASGFIFLQYVMGWYRQAPGKERELVAAITSGGSTYYADSVKGRFTISRDNAKNTVYLQMNSLKPEDTAVYFCATDVADNTFYALYGYDYWGQGTQVTVSS”: the “polyreactivity (PSR sort gate)” value is reported as “low polyreactivity”.
Then “QVQLVESGGGLVQAGGSLRLSCAASGFIFLRYGMGWYRQAPGKERELVASIDSTGGSTYADSVKGRFTISRDNAKNTVYLQMNSLKPEDTAVYYCAAAYYIVSQRDYWGQGTQVTVSS”, with “low polyreactivity”.
Turning to “QVQLVESGGGLVQAGGSLRLSCAASGFIFLSYAMGWYRPAPGKERELVAAISGRGGSTYYADSVKGRFTISRDNAKNTVYLQMNSLKPEDTAVYYCAARLYRYNYDYWGQGTQVTVSS”, the “polyreactivity (PSR sort gate)” value is listed as “high polyreactivity”.
For “QVQLVESGGGLVQAGGSLRLSCAASGFIFLVNAMGWYRGAPGKERELVAAISKSTGGTYYADSVKGRFTISRDNAKNTVYLQMNSLKPEDTAVYYCAADEVYPVQRDMDYWGQGTQVTVSS”, the “polyreactivity (PSR sort gate)” value is on record as “low polyreactivity”.
“QVQLVESGGGLVQAGGSLRLSCAASGFIFLYNVMGWYRQAPGKERELVAAISWRGGTYYAHSVKGRFTISRDNAKNTVYLQMNSLKPEDTAVYYCAKKQRYYGRMDYWGQGTQVTVSS”: the “polyreactivity (PSR sort gate)” value is reported as “high polyreactivity”.
Then “QVQLVESGGGLVQAGGSLRLSCAASGFIFLYYAMGWYRQAPGKERELVAAISNGGSTYYADSVKGRFTISRDNAKNTVYLQMNSLKPEDTAVYYCAARYGYRYTLKYGYWGQGTQVTVSS”, with “high polyreactivity”; and “QVQLVESGGGLVQAGGSLRLSCAASGFIFNAYTMGWYRKAPGKERELFAAISRRGSSTYYADSVKGRFTISRDNAMNTVYLQMNSLKPEDTAVYYCNTRLYARDDSDFDYWGQGPQVTVSS”, with “high polyreactivity”.
The entry for “QVQLVESGGGLVQAGGSLRLSCAASGFIFNIYAMGWYRQAPGKERELVAAITFSGGSTYYADSVKGRFTISRDNAKNTVYLQMNSLKPEDTAVYYCAADYLSEYTTYDYWGQGTQVTVSS” is “low polyreactivity”; for “QVQLVESGGGLVQAGGSLRLSCAASGFIFNRYAMGWYRQAPGKERELVAAISFSGGSTYYADSVKGRFTISRDNAKNTVYLQMNSLKPEDTAVYYCAASWYRYGYWGQGTQVTVSS” it is “high polyreactivity”; for “QVQLVESGGGLVQAGGSLRLSCAASGFIFNRYAMGWYRQAPGKERELVADITGGSTYYADSVKGRFTISRDNAKNTVYLQMNSQKPEDTEVYYCAADRYGFYLESDYWGQGTQVTVSS” it is “low polyreactivity”.
The entry for “QVQLVESGGGLVQAGGSLRLSCAASGFIFNTMGWYRQARGKERELVARITRGGSTDYADSVKGRFTISRDNAKNTVYLQMNSLKPEDTAFYYCAAAIGHFERFYWGQGTQVTVSS” is “low polyreactivity”.
“QVQLVESGGGLVQAGGSLRLSCAASGFIFNYNAMGWYRQAPGKERELVAAISGTGVRTYYADSVKGRFTISRDNAKNTVYLQMNRLKPEDTAVYYCNAYYGYIPVSGYRNDYWGQGTQVTVSS”: the “polyreactivity (PSR sort gate)” value is given as “low polyreactivity”.
Take “QVQLVESGGGLVQAGGSLRLSCAASGFIFNYNTMGWYRQAPGKERELVAAISFSGGSTYYADSVKGRFTISRDNAKNTVYLQMNSLKPEDTAVYYCATRNGRQYSVSYRYYYWGQGTQVTVSS”: the “polyreactivity (PSR sort gate)” value was “low polyreactivity”.
The entry for “QVQLVESGGGLVQAGGSLRLSCAASGFIFPAYAMGWYRQAPGKERELVAGITSRGGSTYYADSVKGRFTISRDNAKNTVYLQMNSLKPEDTAVYYCAKPYHWPWTRFDYWGQGTQVTVSS” is “low polyreactivity”.
Then “QVQLVESGGGLVQAGGSLRLSCAASGFIFPDYAMGWSRQAPGKERELVAAISKRGGSTYYADSVKGRFTISRDNAKNTVYLQMNSLKPEDTAVYYCAAVTSVNPSVFNGNYWGQGTHVTVSS”, with “low polyreactivity”.
Then “QVQLVESGGGLVQAGGSLRLSCAASGFIFPLYTMGWYRQAPGKERELVAAITCSGGSTYYADSVKGGFTISRDNAKNTVYLQMNSLKPEDTAVYYCAKDYTYGMDWGQGTQVTVSS”, with “low polyreactivity”.
Take “QVQLVESGGGLVQAGGSLRLSCAASGFIFPNYAMGWYRQAPGKEREFVASISWSGGSTYYADSVKGRFTISRDNAKNTVYLQMNSLKPEDTEVYYCNAVAFFNHGAGEDYWGQGTQVTVSS”: the “polyreactivity (PSR sort gate)” value is “high polyreactivity”.
“QVQLVESGGGLVQAGGSLRLSCAASGFIFPQYAMGWYRQAPGKERELVAAISTGGGSTYYADSVKGRFTISRDNAKNTVYLQMNSLKPEDTAVYYCAKYVYRFARYNLDYWGQGTQVTVSS”: the “polyreactivity (PSR sort gate)” value is recorded as “high polyreactivity”.
The entry for “QVQLVESGGGLVQAGGSLRLSCAASGFIFPRNAMGWYRPAPGKERELVAAISRSGGRTYYADSVKGRFTISRDNAKNTVYLQMNSLKPEDTAVYYCNADLALRSRYGEYDYWGQGTQVTVSS” is “high polyreactivity”; for “QVQLVESGGGLVQAGGSLRLSCAASGFIFPRNAMGWYRQAPGKERELVAGITRGGSTNYADSVKGRFTISRDNAKNTVYLQMNSLKPEDTAVYYCAAKSYNYNRPYGWREYDYWGQGTQVTVSS” it is “high polyreactivity”; for “QVQLVESGGGLVQAGGSLRLSCAASGFIFPRNVMGWYRQAPGKERELVAAISRSGGSTYYADSVKGRFTISRDNAKNTVYLQMNSLTPEDTAVYYCAKRPAYYYFVYQVPIGYDYWGQGTQVTVSS” it is “high polyreactivity”.
The entry for “QVQLVESGGGLVQAGGSLRLSCAASGFIFPRYAMGWYRQAPGKERELVADISYSGGSTYYADSVKGRFTISRDNAKNTVYLQMNSLKPEDTAVYRPYAFGYWGQGTQVTVSS” is “high polyreactivity”; for “QVQLVESGGGLVQAGGSLRLSCAASGFIFPSYAMGWYRQAPGKERELVAAITSSGGSTYYADSVKGRFTISRDNAKNTVYLQMNSLKPEDTAVYYCNARYPGRARRYNYWGQGTQVTVSS” it is “high polyreactivity”.
As for “QVQLVESGGGLVQAGGSLRLSCAASGFIFPTNVMGWYRQAPGKEREFVASITWRGGGTYYADSVKGRFTISRDNAKNTVYLPMNSLKPEDTAVYYCAAGRSWSSYWKYDYWGQGTQVTVSS”, the “polyreactivity (PSR sort gate)” value is reported as “low polyreactivity”.
The entry for “QVQLVESGGGLVQAGGSLRLSCAASGFIFPTYAMGWYRQAPGKERELVATITSAVRTKYADSVKGRFTISRDNAKNTVYLQMNSLKPEDTAVYYSAAAYTVARFYRYYYWGQGTQVTVSS” is “high polyreactivity”.

The values are drawn from the nanobody polyreactivity screen of Harvey et al. (2022).
